Data on 1 variant can be found in IntAct's records for PubMed 22677173.

B1: Spermatogenesis-defective protein 39 homolog (Homo sapiens), Q9H9C1 (parent)
chain: MNRTKGDEEEYWNSSKFKAFTFDDEDDELSQLKESKRAVNSLRDFVDDDDDDDLERVSWSGEPVGSISWSIRETAGNSGSTHEGREQLKSRNSFSSYAQLPKPTSTYSLSSFFRGRTRPGSFQSLSDALSDTPAKSYAPELGRPKGEYRDYSNDWSPSDTVRRLRKGKVCSLERFRSLQDKLQLLEEAVSMHDGNVITAVLIFLKRTLSKEILFRELEVRQVALRHLIHFLKEIGDQKLLLDLFRFLDRTEELALSHYREHLNIQDPDKRKEFLKTCVGLPFSAEDSAHIQDHYTLLERQIIIEANDRHLESAGQTEIFRKHPRKASILNMPLVTTLFYSCFYHYTEAEGTFSSPVNLKKTFKIPDKQYVLTALAARAKLRAWNDVDALFTTKNWLGYTKKRAPIGFHRVVEILHKNNAPVQILQEYVNLVEDVDTKLNLATKFKCHDVVIDTYRDLKDRQQLLAYRSKVDKGSAEEEKIDALLSSSQIRWKN
partner: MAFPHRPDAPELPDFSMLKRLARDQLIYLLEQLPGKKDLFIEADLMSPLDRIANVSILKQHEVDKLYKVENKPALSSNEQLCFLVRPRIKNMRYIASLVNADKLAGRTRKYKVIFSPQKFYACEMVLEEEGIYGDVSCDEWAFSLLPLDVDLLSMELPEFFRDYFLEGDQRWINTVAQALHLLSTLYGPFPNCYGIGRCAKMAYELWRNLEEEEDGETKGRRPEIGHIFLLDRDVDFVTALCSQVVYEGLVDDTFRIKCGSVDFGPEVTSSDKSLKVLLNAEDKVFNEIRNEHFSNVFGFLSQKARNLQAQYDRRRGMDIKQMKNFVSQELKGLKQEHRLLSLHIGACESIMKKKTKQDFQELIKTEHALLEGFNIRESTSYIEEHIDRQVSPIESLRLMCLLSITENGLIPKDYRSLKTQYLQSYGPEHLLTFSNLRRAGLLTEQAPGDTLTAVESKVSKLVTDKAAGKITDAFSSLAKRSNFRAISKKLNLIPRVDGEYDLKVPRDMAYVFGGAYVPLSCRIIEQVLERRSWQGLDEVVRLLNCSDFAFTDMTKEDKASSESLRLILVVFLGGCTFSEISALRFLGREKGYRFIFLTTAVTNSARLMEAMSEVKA

Variants of B1 are the subject of this experiment. Conditions: with vp33b_human VPS33B.
Take MNRTKGDEEEFWNSSKFKAFTFDDEDDELSQLKESKRAVNSLRDFVDDDDDDDLERVSWSGEPVGSISWSIRETAGNSGSTHEGREQLKSRNSFSSYAQLPKPTSTYSLSSFFRGRTRPGSFQSLSDALSDTPAKSYAPELGRPKGEYRDYSNDWSPSDTVRRLRKGKVCSLERFRSLQDKLQLLEEAVSMHDGNVITAVLIFLKRTLSKEILFRELEVRQVALRHLIHFLKEIGDQKLLLDLFRFLDRTEELALSHYREHLNIQDPDKRKEFLKTCVGLPFSAEDSAHIQDHYTLLERQIIIEANDRHLESAGQTEIFRKHPRKASILNMPLVTTLFYSCFYHYTEAEGTFSSPVNLKKTFKIPDKQYVLTALAARAKLRAWNDVDALFTTKNWLGYTKKRAPIGFHRVVEILHKNNAPVQILQEYVNLVEDVDTKLNLATKFKCHDVVIDTYRDLKDRQQLLAYRSKVDKGSAEEEKIDALLSSSQIRWKN [Y11F]: the “effect of a mutation on the interaction” value is “increasing interaction”.
